# Data: patent publication US20220363754A1 (SHANGHAI JUNSHI BIOSCIENCES, published 2022)
# Like-named read-outs stand apart in the source and are kept apart here.
# T1: recombinant protein hTIGIT-ECD-mFC (human; mouse, UniProt Q495A1 24-155)
# T1 construct: range 24-155; Expressed in 293E cells; also called human TIGIT-ECD-mFc; not shown: murine IgG2a Fc domain of the vector MX2-mFc
# T1 sequence (looked up): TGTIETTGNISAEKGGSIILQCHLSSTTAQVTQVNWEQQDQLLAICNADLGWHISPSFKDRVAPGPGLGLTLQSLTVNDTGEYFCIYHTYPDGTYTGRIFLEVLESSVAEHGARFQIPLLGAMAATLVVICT
# B1: etigilimab (antibody, V domains shown)
# VH: QVQLQESGPGLVKPSETLSLTCAVSGYSITSDYAWNWIRQPPGKGLEWIGYISYSGSTSYNPSLRSRVTISRDTSKNQFFLKLSSVTAADTAVYYCARRQVGLGFAYWGQGTLVTVSS
# VL: DIQMTQSPSSLSASVGDRVTITCKASQDVSTAVAWYQQKPGKAPKLLIYSASYRYTGVPSRFSGSGSGTDFTFTISSLQPEDIATYYCQQHYSTPWTFGQGTKVEIK
# Assays:
# Test in all cases: ELISA, 0.5 ug/mL human TIGIT-ECD-mFc coated on the plate, detection with anti-IgG4-HRP, OD 450 nm; unit taken from the axis Log:ng/mL
# [1] = target: T1, recombinant protein hTIGIT-ECD-mFC
# [2] = target: T1, recombinant protein hTIGIT-ECD-mFC; remark: listed apart in the source
# [3] = target: T1, recombinant protein hTIGIT-ECD-mFC; remark: listed apart in the source
# [4] = target: T1, recombinant protein hTIGIT-ECD-mFC; remark: listed apart in the source
binder,measurement,setting,value
B1,EC50,[1],0.0262 µg/mL
same,EC50,[2],0.0194 µg/mL
same,EC50,[3],0.0362 µg/mL
same,EC50,[4],0.0275 µg/mL
